Measurements published in article PMC8298264, “Function of cofactor Akirin2 in the regulation of gene expression in model human neutrophil-like HL60 cells” (Bioscience Reports, 2021).

B1: sp¦Q99986¦VRK1_HUMAN (protein, UniProt Q99986 1-396, looked up)
Serine/threonine-protein …: MPRVKAAQAGRQSSAKRHLAEQFAVGEIITDMAKKEWKVGLPIGQGGFGCIYLADMNSSESVGSDAPCVVKVEPSDNGPLFTELKFYQRAAKPEQIQKWIRTRKLKYLGVPKYWGSGLHDKNGKSYRFMIMDRFGSDLQKIYEANAKRFSRKTVLQLSLRILDILEYIHEHEYVHGDIKASNLLLNYKNPDQVYLVDYGLAYRYCPEGVHKEYKEDPKRCHDGTIEFTSIDAHNGVAPSRRGDLEILGYCMIQWLTGHLPWEDNLKDPKYVRDSKIRYRENIASLMDKCFPEKNKPGEIAKYMETVKLLDYTEKPLYENLRDILLQGLKAIGSKDDGKLDLSVVENGGLKAKTITKKRKKEIEESKEPGVEDTEWSNTQTEEAIQTRSRTRKRVQK
B2: sp¦Q1KMD3¦HNRL2_HUMAN (protein, UniProt Q1KMD3 1-747, looked up)
Heterogeneous nuclear …: MEVKRLKVTELRSELQRRGLDSRGLKVDLAQRLQEALDAEMLEDEAGGGGAGPGGACKAEPRPVAASGGGPGGDEEEDEEEEEEDEEALLEDEDEEPPPAQALGQAAQPPPEPPEAAAMEAAAEPDASEKPAEATAGSGGVNGGEEQGLGKREEDEPEERSGDETPGSEVPGDKAAEEQGDDQDSEKSKPAGSDGERRGVKRQRDEKDEHGRAYYEFREEAYHSRSKSPLPPEEEAKDEEEDQTLVNLDTYTSDLHFQVSKDRYGGQPLFSEKFPTLWSGARSTYGVTKGKVCFEAKVTQNLPMKEGCTEVSLLRVGWSVDFSRPQLGEDEFSYGFDGRGLKAENGQFEEFGQTFGENDVIGCFANFETEEVELSFSKNGEDLGVAFWISKDSLADRALLPHVLCKNCVVELNFGQKEEPFFPPPEEFVFIHAVPVEERVRTAVPPKTIEECEVILMVGLPGSGKTQWALKYAKENPEKRYNVLGAETVLNQMRMKGLEEPEMDPKSRDLLVQQASQCLSKLVQIASRTKRNFILDQCNVYNSGQRRKLLLFKTFSRKVVVVVPNEEDWKKRLELRKEVEGDDVPESIMLEMKANFSLPEKCDYMDEVTYGELEKEEAQPIVTKYKEEARKLLPPSEKRTNRRNNRNKRNRQNRSRGQGYVGGQRRGYDNRAYGQQYWGQPGNRGGYRNFYDRYRGDYDRFYGRDYEYNRYRDYYRQYNRDWQSYYYHHPQDRDRYYRNYYGYQGYR
B3: sp¦Q9NVI7¦ATD3A_HUMAN (protein, UniProt Q9NVI7 2-586, looked up)
ATPase family AAA …: SWLFGINKGPKGEGAGPPPPLPPAQPGAEGGGDRGLGDRPAPKDKWSNFDPTGLERAAKAARELEHSRYAKDALNLAQMQEQTLQLEQQSKLKEYEAAVEQLKSEQIRAQAEERRKTLSEETRQHQARAQYQDKLARQRYEDQLKQQQLLNEENLRKQEESVQKQEAMRRATVEREMELRHKNEMLRVEAEARARAKAERENADIIREQIRLKAAEHRQTVLESIRTAGTLFGEGFRAFVTDWDKVTATVAGLTLLAVGVYSAKNATLVAGRFIEARLGKPSLVRETSRITVLEALRHPIQVSRRLLSRPQDALEGVVLSPSLEARVRDIAIATRNTKKNRSLYRNILMYGPPGTGKTLFAKKLALHSGMDYAIMTGGDVAPMGREGVTAMHKLFDWANTSRRGLLLFVDEADAFLRKRATEKISEDLRATLNAFLYRTGQHSNKFMLVLASNQPEQFDWAINDRINEMVHFDLPGQEERERLVRMYFDKYVLKPATEGKQRLKLAQFDYGRKCSEVARLTEGMSGREIAQLAVSWQATAYASEDGVLTEAMMDTRVQDAVQQHQQKMCWLKAEGPGRGDEPSPS
B4: sp¦P36957¦ODO2_HUMAN (protein, UniProt P36957 68-453, looked up)
Dihydrolipoyllysine-residue …: DDLVTVKTPAFAESVTEGDVRWEKAVGDTVAEDEVVCEIETDKTSVQVPSPANGVIEALLVPDGGKVEGGTPLFTLRKTGAAPAKAKPAEAPAAAAPKAEPTAAAVPPPAAPIPTQMPPVPSPSQPPSGKPVSAVKPTVAPPLAEPGAGKGLRSEHREKMNRMRQRIAQRLKEAQNTCAMLTTFNEIDMSNIQEMRARHKEAFLKKHNLKLGFMSAFVKASAFALQEQPVVNAVIDDTTKEVVYRDYIDISVAVATPRGLVVPVIRNVEAMNFADIERTITELGEKARKNELAIEDMDGGTFTISNGGVFGSLFGTPIINPPQSAILGMHGIFDRPVAIGGKVEVRPMMYVALTYDHRLIDGREAVTFLRKIKAAVEDPRVLLLDL
B5: sp¦P18859¦ATP5J_HUMAN (protein, UniProt P18859 33-108, looked up)
ATP synthase peripheral stalk …: NKELDPIQKLFVDKIREYKSKRQTSGGPVDASSEYQQELERELFKLKQMFGNADMNTFPTFKFEDPKFEVIEKPQA
B6: sp¦P07954¦FUMH_HUMAN (protein, UniProt P07954 45-510, looked up)
Fumarate hydratase, …: ASQNSFRIEYDTFGELKVPNDKYYGAQTVRSTMNFKIGGVTERMPTPVIKAFGILKRAAAEVNQDYGLDPKIANAIMKAADEVAEGKLNDHFPLVVWQTGSGTQTNMNVNEVISNRAIEMLGGELGSKIPVHPNDHVNKSQSSNDTFPTAMHIAAAIEVHEVLLPGLQKLHDALDAKSKEFAQIIKIGRTHTQDAVPLTLGQEFSGYVQQVKYAMTRIKAAMPRIYELAAGGTAVGTGLNTRIGFAEKVAAKVAALTGLPFVTAPNKFEALAAHDALVELSGAMNTTACSLMKIANDIRFLGSGPRSGLGELILPENEPGSSIMPGKVNPTQCEAMTMVAAQVMGNHVAVTVGGSNGHFELNVFKPMMIKNVLHSARLLGDASVSFTENCVVGIQANTERINKLMNESLMLVTALNPHIGYDKAAKIAKTAHKNGSTLKETAIELGYLTAEQFDEWVKPKDMLGPK
B7: sp¦P24752¦THIL_HUMAN (protein, UniProt P24752 34-427, looked up)
Acetyl-CoA acetyltransferase, …: VSKPTLKEVVIVSATRTPIGSFLGSLSLLPATKLGSIAIQGAIEKAGIPKEEVKEAYMGNVLQGGEGQAPTRQAVLGAGLPISTPCTTINKVCASGMKAIMMASQSLMCGHQDVMVAGGMESMSNVPYVMNRGSTPYGGVKLEDLIVKDGLTDVYNKIHMGSCAENTAKKLNIARNEQDAYAINSYTRSKAAWEAGKFGNEVIPVTVTVKGQPDVVVKEDEEYKRVDFSKVPKLKTVFQKENGTVTAANASTLNDGAAALVLMTADAAKRLNVTPLARIVAFADAAVEPIDFPIAPVYAASMVLKDVGLKKEDIAMWEVNEAFSLVVLANIKMLEIDPQKVNINGGAVSLGHPIGMSGARIVGHLTHALKQGEYGLASICNGGGGASAMLIQKL
B8: sp¦Q6RFH5¦WDR74_HUMAN (protein, UniProt Q6RFH5 1-385, looked up)
WD repeat-containing protein …: MAAAAARWNHVWVGTETGILKGVNLQRKQAANFTAGGQPRREEAVSALCWGTGGETQMLVGCADRTVKHFSTEDGIFQGQRHCPGGEGMFRGLAQADGTLITCVDSGILRVWHDKDKDTSSDPLLELRVGPGVCRMRQDPAHPHVVATGGKENALKIWDLQGSEEPVFRAKNVRNDWLDLRVPIWDQDIQFLPGSQKLVTCTGYHQVRVYDPASPQRRPVLETTYGEYPLTAMTLTPGGNSVIVGNTHGQLAEIDLRQGRLLGCLKGLAGSVRGLQCHPSKPLLASCGLDRVLRIHRIQNPRGLEHKVYLKSQLNCLLLSGRDNWEDEPQEPQEPNKVPLEDTETDELWASLEAAAKRKLSGLEQPQGALQTRRRKKKRPGSTSP
B9: sp¦O43390¦HNRPR_HUMAN (protein, UniProt O43390 2-633, looked up)
Heterogeneous nuclear …: ANQVNGNAVQLKEEEEPMDTSSVTHTEHYKTLIEAGLPQKVAERLDEIFQTGLVAYVDLDERAIDALREFNEEGALSVLQQFKESDLSHVQNKSAFLCGVMKTYRQREKQGSKVQESTKGPDEAKIKALLERTGYTLDVTTGQRKYGGPPPDSVYSGVQPGIGTEVFVGKIPRDLYEDELVPLFEKAGPIWDLRLMMDPLSGQNRGYAFITFCGKEAAQEAVKLCDSYEIRPGKHLGVCISVANNRLFVGSIPKNKTKENILEEFSKVTEGLVDVILYHQPDDKKKNRGFCFLEYEDHKSAAQARRRLMSGKVKVWGNVVTVEWADPVEEPDPEVMAKVKVLFVRNLATTVTEEILEKSFSEFGKLERVKKLKDYAFVHFEDRGAAVKAMDEMNGKEIEGEEIEIVLAKPPDKKRKERQAARQASRSTAYEDYYYHPPPRMPPPIRGRGRGGGRGGYGYPPDYYGYEDYYDDYYGYDYHDYRGGYEDPYYGYDDGYAVRGRGGGRGGRGAPPPPRGRGAPPPRGRAGYSQRGAPLGPPRGSRGGRGGPAQQQRGRGSRGSRGNRGGNVGGKRKADGYNQPDSKRRQTNNQQNWGSQPIAQQPLQQGGDYSGNYGYNNDNQEFYQDTYGQQWK
B10: sp¦P00966¦ASSY_HUMAN (protein, UniProt P00966 1-412, looked up)
Argininosuccinate synthase: MSSKGSVVLAYSGGLDTSCILVWLKEQGYDVIAYLANIGQKEDFEEARKKALKLGAKKVFIEDVSREFVEEFIWPAIQSSALYEDRYLLGTSLARPCIARKQVEIAQREGAKYVSHGATGKGNDQVRFELSCYSLAPQIKVIAPWRMPEFYNRFKGRNDLMEYAKQHGIPIPVTPKNPWSMDENLMHISYEAGILENPKNQAPPGLYTKTQDPAKAPNTPDILEIEFKKGVPVKVTNVKDGTTHQTSLELFMYLNEVAGKHGVGRIDIVENRFIGMKSRGIYETPAGTILYHAHLDIEAFTMDREVRKIKQGLGLKFAELVYTGFWHSPECEFVRHCIAKSQERVEGKVQVSVLKGQVYILGRESPLSLYNEELVSMNVQGDYEPTDATGFININSLRLKEYHRLQSKVTAK

System: human HL60 cells
Assay: SWATH-MS proteomics, differential protein representation, akirin2 KO vs WT HL60 cells
Assay type: cell-based
Conditions: SWATH-MS, akirin2 KO vs WT HL60 cells, under-represented in KO
Procedure, shortened: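 Read-out is label-free SWATH-MS protein area, globally normalized to total detected-protein area, with identifications held at 1% FDR against a library from information-dependent acquisition.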

In order of rising “Fold Change” value:
1. B2  0.7447
2. B1  0.7448

In order of falling “Log (Fold Change)” value:
1. B1  -0.128
2. B2  -0.128

Same assay, conditions: SWATH-MS, akirin2 KO vs WT HL60 cells; sheet "Under-represented in KO"

In order of rising “Fold Change” value:
1. B8  0.7453
2. B4  0.7478
3. B7  0.7481
4. B3  0.7506
5. B5  0.7532
6. B6  0.754
7. B9  0.7565

In order of falling “Log (Fold Change)” value:
1. B9  -0.1212
2. B6  -0.1226
3. B5  -0.1231
4. B3  -0.1246
5. B7  -0.126
6. B4  -0.1262
7. B8  -0.1277

Same assay, conditions: akirin2 KO vs WT HL60 cells; sheet "Under-represented in KO"

For B10, the “Fold Change” value was 0.3334.

B10 was tested, and the “Log (Fold Change)” value was -0.477.
